Among the data in patent WO1996020011A1 are immunoreactivity retained after radioiodination values, retold here.

The target of this assay is LoVo tumour cells (carcinoembryonic antigen, the antigen of A5B7, on the cells) (human) (UniProt P06731). Nature of the assay: binding of the 125I-labelled conjugate to LoVo tumour cells, method of Lindmo et al.
UniProt P06731, sequence (P06731 35-702): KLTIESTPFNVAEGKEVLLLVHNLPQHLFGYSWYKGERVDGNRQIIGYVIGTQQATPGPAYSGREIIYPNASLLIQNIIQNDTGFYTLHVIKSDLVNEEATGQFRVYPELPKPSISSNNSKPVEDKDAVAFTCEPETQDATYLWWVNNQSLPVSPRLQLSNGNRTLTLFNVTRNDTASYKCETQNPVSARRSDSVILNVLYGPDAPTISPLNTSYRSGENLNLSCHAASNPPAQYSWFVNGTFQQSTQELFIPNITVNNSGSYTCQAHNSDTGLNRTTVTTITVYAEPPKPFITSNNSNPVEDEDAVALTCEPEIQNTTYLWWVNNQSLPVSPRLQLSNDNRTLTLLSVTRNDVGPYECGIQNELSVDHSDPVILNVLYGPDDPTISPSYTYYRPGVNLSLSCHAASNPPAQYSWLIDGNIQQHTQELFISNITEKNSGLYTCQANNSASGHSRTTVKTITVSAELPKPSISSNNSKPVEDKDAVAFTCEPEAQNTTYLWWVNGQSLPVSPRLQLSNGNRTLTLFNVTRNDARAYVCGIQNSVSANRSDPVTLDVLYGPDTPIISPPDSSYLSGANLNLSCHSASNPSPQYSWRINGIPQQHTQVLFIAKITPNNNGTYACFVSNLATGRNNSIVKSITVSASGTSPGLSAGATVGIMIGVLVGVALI

Consider “murine A5B7 F(ab')2-bovine pancreatic ribonuclease conjugate, radioiodinated with 125I (from UniProt P61823 27-150)”, for which the immunoreactivity retained after radioiodination is > 50%.
